According to publication PMC6750108, “Crystal Structure of 4-Hydroxyphenylpyruvate Dioxygenase in Complex with Substrate Reveals a New Starting Point for Herbicide Discovery” (Research, 2019):

Substrate: O=C(O)C(=O)Cc1ccc(O)cc1
Experiment: purified protein
Format: biochemical, Arabidopsis thaliana
Details: apparent, air-saturated 20 mM HEPES pH 7.0, 25 °C, 0.1 mM FeSO4, 2 mM ascorbate

| Protein | Km [µM] | kcat [s⁻¹] | kcat/Km [M⁻¹ s⁻¹] |
| --- | --- | --- | --- |
| AtHPPD (Arabidopsis thaliana; F381A) (protein, full-length, N-terminal His tag (pET15b), E. coli BL21 (DE3); Ni-NTA, ion exchange, size exclusion; homodimers in crystal) MGHQNAAVSENQNHDDGAASSPGFKLVGFSKFVRKNPKSDKFKVKRFHHIEFWCGDATNVARRFSWGLGMRFSAKSDLSTGNMVHASYLLTSGDLRFLFTAPYSPSLSAGEIKPTTTASIPSFDHGSCRSFFSSHGLGVRAVAIEVEDAESAFSISVANGAIPSSPPIVLNEAVTIAEVKLYGDVVLRYVSYKAEDTEKSEFLPGFERVEDASSFPLDYGIRRLDHAVGNVPELGPALTYVAGFTGFHQFAEFTADDVGTAESGLNSAVLASNDEMVLLPINEPVHGTKRKSQIQTYLEHNEGAGLQHLALMSEDIFRTLREMRKRSSIGGFDFMPSPPPTYYQNLKKRVGDVLSDDQIKECEELGILVDRDDQGTLLQIATKPLGDRPTIFIEIIQRVGCMMKDEEGKAYQSGGCGGFGKGNFSELFKSIEEYEKTLEAKQLVG | 9.10 ± 0.94 | 0.924 ± 0.032 | 102000 |
| AtHPPD (Arabidopsis thaliana; S267A) (protein, full-length, N-terminal His tag (pET15b), E. coli BL21 (DE3); Ni-NTA, ion exchange, size exclusion; homodimers in crystal) MGHQNAAVSENQNHDDGAASSPGFKLVGFSKFVRKNPKSDKFKVKRFHHIEFWCGDATNVARRFSWGLGMRFSAKSDLSTGNMVHASYLLTSGDLRFLFTAPYSPSLSAGEIKPTTTASIPSFDHGSCRSFFSSHGLGVRAVAIEVEDAESAFSISVANGAIPSSPPIVLNEAVTIAEVKLYGDVVLRYVSYKAEDTEKSEFLPGFERVEDASSFPLDYGIRRLDHAVGNVPELGPALTYVAGFTGFHQFAEFTADDVGTAESGLNAAVLASNDEMVLLPINEPVHGTKRKSQIQTYLEHNEGAGLQHLALMSEDIFRTLREMRKRSSIGGFDFMPSPPPTYYQNLKKRVGDVLSDDQIKECEELGILVDRDDQGTLLQIFTKPLGDRPTIFIEIIQRVGCMMKDEEGKAYQSGGCGGFGKGNFSELFKSIEEYEKTLEAKQLVG | 5.33 ± 1.59 | 0.249 ± 0.025 | 46700 |
| AtHPPD (Arabidopsis thaliana; N282A) (protein, full-length, N-terminal His tag (pET15b), E. coli BL21 (DE3); Ni-NTA, ion exchange, size exclusion; homodimers in crystal) MGHQNAAVSENQNHDDGAASSPGFKLVGFSKFVRKNPKSDKFKVKRFHHIEFWCGDATNVARRFSWGLGMRFSAKSDLSTGNMVHASYLLTSGDLRFLFTAPYSPSLSAGEIKPTTTASIPSFDHGSCRSFFSSHGLGVRAVAIEVEDAESAFSISVANGAIPSSPPIVLNEAVTIAEVKLYGDVVLRYVSYKAEDTEKSEFLPGFERVEDASSFPLDYGIRRLDHAVGNVPELGPALTYVAGFTGFHQFAEFTADDVGTAESGLNSAVLASNDEMVLLPIAEPVHGTKRKSQIQTYLEHNEGAGLQHLALMSEDIFRTLREMRKRSSIGGFDFMPSPPPTYYQNLKKRVGDVLSDDQIKECEELGILVDRDDQGTLLQIFTKPLGDRPTIFIEIIQRVGCMMKDEEGKAYQSGGCGGFGKGNFSELFKSIEEYEKTLEAKQLVG | 10.83 ± 2.33 | 0.039 ± 0.003 | 3600 |
| AtHPPD (Arabidopsis thaliana; N423A) (protein, full-length, N-terminal His tag (pET15b), E. coli BL21 (DE3); Ni-NTA, ion exchange, size exclusion; homodimers in crystal) MGHQNAAVSENQNHDDGAASSPGFKLVGFSKFVRKNPKSDKFKVKRFHHIEFWCGDATNVARRFSWGLGMRFSAKSDLSTGNMVHASYLLTSGDLRFLFTAPYSPSLSAGEIKPTTTASIPSFDHGSCRSFFSSHGLGVRAVAIEVEDAESAFSISVANGAIPSSPPIVLNEAVTIAEVKLYGDVVLRYVSYKAEDTEKSEFLPGFERVEDASSFPLDYGIRRLDHAVGNVPELGPALTYVAGFTGFHQFAEFTADDVGTAESGLNSAVLASNDEMVLLPINEPVHGTKRKSQIQTYLEHNEGAGLQHLALMSEDIFRTLREMRKRSSIGGFDFMPSPPPTYYQNLKKRVGDVLSDDQIKECEELGILVDRDDQGTLLQIFTKPLGDRPTIFIEIIQRVGCMMKDEEGKAYQSGGCGGFGKGAFSELFKSIEEYEKTLEAKQLVG | 15.66 ± 4.29 | 0.545 ± 0.061 | 34800 |
| AtHPPD (Arabidopsis thaliana; Q307A) (protein, full-length, N-terminal His tag (pET15b), E. coli BL21 (DE3); Ni-NTA, ion exchange, size exclusion; homodimers in crystal) MGHQNAAVSENQNHDDGAASSPGFKLVGFSKFVRKNPKSDKFKVKRFHHIEFWCGDATNVARRFSWGLGMRFSAKSDLSTGNMVHASYLLTSGDLRFLFTAPYSPSLSAGEIKPTTTASIPSFDHGSCRSFFSSHGLGVRAVAIEVEDAESAFSISVANGAIPSSPPIVLNEAVTIAEVKLYGDVVLRYVSYKAEDTEKSEFLPGFERVEDASSFPLDYGIRRLDHAVGNVPELGPALTYVAGFTGFHQFAEFTADDVGTAESGLNSAVLASNDEMVLLPINEPVHGTKRKSQIQTYLEHNEGAGLAHLALMSEDIFRTLREMRKRSSIGGFDFMPSPPPTYYQNLKKRVGDVLSDDQIKECEELGILVDRDDQGTLLQIFTKPLGDRPTIFIEIIQRVGCMMKDEEGKAYQSGGCGGFGKGNFSELFKSIEEYEKTLEAKQLVG | 30.31 ± 1.67 | 0.176 ± 0.004 | 5800 |
| AtHPPD (Arabidopsis thaliana; Q293A) (protein, full-length, N-terminal His tag (pET15b), E. coli BL21 (DE3); Ni-NTA, ion exchange, size exclusion; homodimers in crystal) MGHQNAAVSENQNHDDGAASSPGFKLVGFSKFVRKNPKSDKFKVKRFHHIEFWCGDATNVARRFSWGLGMRFSAKSDLSTGNMVHASYLLTSGDLRFLFTAPYSPSLSAGEIKPTTTASIPSFDHGSCRSFFSSHGLGVRAVAIEVEDAESAFSISVANGAIPSSPPIVLNEAVTIAEVKLYGDVVLRYVSYKAEDTEKSEFLPGFERVEDASSFPLDYGIRRLDHAVGNVPELGPALTYVAGFTGFHQFAEFTADDVGTAESGLNSAVLASNDEMVLLPINEPVHGTKRKSAIQTYLEHNEGAGLQHLALMSEDIFRTLREMRKRSSIGGFDFMPSPPPTYYQNLKKRVGDVLSDDQIKECEELGILVDRDDQGTLLQIFTKPLGDRPTIFIEIIQRVGCMMKDEEGKAYQSGGCGGFGKGNFSELFKSIEEYEKTLEAKQLVG | 90.41 ± 11.33 | 0.014 ± 0.001 | 150 |

Same assay, conditions: apparent, air-saturated 20 mM HEPES pH 7.0, 25 °C, 0.1 mM FeSO4, 2 mM ascorbate, crystal with Co2+, 2.80 Å

| Protein | Km [µM] | kcat [s⁻¹] | kcat/Km [M⁻¹ s⁻¹] |
| --- | --- | --- | --- |
| AtHPPD (Arabidopsis thaliana) (protein, full-length, N-terminal His tag (pET15b), E. coli BL21 (DE3); Ni-NTA, ion exchange, size exclusion; homodimers in crystal) MGHQNAAVSENQNHDDGAASSPGFKLVGFSKFVRKNPKSDKFKVKRFHHIEFWCGDATNVARRFSWGLGMRFSAKSDLSTGNMVHASYLLTSGDLRFLFTAPYSPSLSAGEIKPTTTASIPSFDHGSCRSFFSSHGLGVRAVAIEVEDAESAFSISVANGAIPSSPPIVLNEAVTIAEVKLYGDVVLRYVSYKAEDTEKSEFLPGFERVEDASSFPLDYGIRRLDHAVGNVPELGPALTYVAGFTGFHQFAEFTADDVGTAESGLNSAVLASNDEMVLLPINEPVHGTKRKSQIQTYLEHNEGAGLQHLALMSEDIFRTLREMRKRSSIGGFDFMPSPPPTYYQNLKKRVGDVLSDDQIKECEELGILVDRDDQGTLLQIFTKPLGDRPTIFIEIIQRVGCMMKDEEGKAYQSGGCGGFGKGNFSELFKSIEEYEKTLEAKQLVG | 1.87 ± 0.37 | 1.08 ± 0.053 | 577000 |
